Results: paper PMC13125535, “Reprogramming of bacterial virulence by lysine acetylation” (Nature Communications, 2026)

B1: SnCE1 C256A AcK209 (domain or fragment)
chain: SLTSKAICRYSLSSVESIQPKTQVKAIEPKGEKDRFLIDERNWLNNQHLGLYSLFLQEKYGPEVFFPFGGWTYVFPGLTDRFFKEDSYHILDVRAKRIKSFLDYKSITYPLFIGGNHWGLLFIDREKRTVEYYDSKINYGNYEEGLQGIKDVAAKFTKYDPGEKPYTYLEKIKKKLQPDGYQAGPWALYFLEHRLENPEVDFNQLDLNEAQNMIAKYRFAVRDKLLELQKNGNTLYC
modifications: acetyl-lysine at 209
notes: SnCE1, Simkania negevensis, UniProt F8L4W9
B2: SnCE1_(104-310) C256A (non-acetylated) (domain or fragment)
chain: GEKDRFLIDERNWLNNQHLGLYSLFLQEKYGPEVFFPFGGWTYVFPGLTDRFFKEDSYHILDVRAKRIKSFLDYKSITYPLFIGGNHWGLLFIDREKRTVEYYDSKINYGNYEEGLQGIKDVAAKFTKYDPGEKPYTYLEKIKKKLQPDGYQAGPWALYFLEHRLENPEVDFNQLDLNEAQNMIAKYRFAVRDKLLELQKNGNTLYC
notes: SnCE1, Simkania negevensis, UniProt F8L4W9, residues 104-310; Not acetylated; no proteolytic processing seen for this truncated protein; not shown: GST, N-terminal, cleaved

Molecular target: the molecule itself
Assay: SEC; analytical SEC on a calibrated Superdex 200 10/300 GL column; 25 mM Tris-HCl pH 7.5, 150 mM NaCl, 2 mM β-mercaptoethanol; 1.0–2.0 mg/mL protein, 100 µL applied; tetramer to monomers

Protein	stoichiometry N
B1	4
B2	4
